Reference: paper PMC8206812 (Frontiers in Bioengineering and Biotechnology, 2021)

Key:
[1] = molecular target: T1, yeast hexokinase (HK) (Saccharomyces cerevisiae, UniProt P04807); experiment: coupled G6PDH assay, NADH formation; type: biochemical; conditions: inhibition by product; 0.15-20 mM ADP, 30 °C, pH 7.5
T1 construct: gene HXK2; commercial preparation containing predominantly the PII isoform (HXK2); may contain some PI
T1 sequence (P04807 2-486): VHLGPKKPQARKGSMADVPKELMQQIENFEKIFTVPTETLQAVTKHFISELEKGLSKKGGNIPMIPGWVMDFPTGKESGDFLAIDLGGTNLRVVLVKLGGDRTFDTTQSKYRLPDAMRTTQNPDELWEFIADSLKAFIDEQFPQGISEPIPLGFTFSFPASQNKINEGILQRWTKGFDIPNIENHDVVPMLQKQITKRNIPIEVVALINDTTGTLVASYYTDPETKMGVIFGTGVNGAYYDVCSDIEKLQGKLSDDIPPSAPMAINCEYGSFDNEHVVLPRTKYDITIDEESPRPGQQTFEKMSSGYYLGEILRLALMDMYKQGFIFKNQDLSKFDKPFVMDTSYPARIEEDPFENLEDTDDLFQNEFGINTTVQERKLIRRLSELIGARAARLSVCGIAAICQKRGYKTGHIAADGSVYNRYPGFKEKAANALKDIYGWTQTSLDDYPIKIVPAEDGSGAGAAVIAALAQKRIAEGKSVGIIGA

[2] = substrate: Nc1ncnc2c1ncn2[C@@H]1O[C@H](COP(=O)(O)OP(=O)(O)O)[C@@H](O)[C@H]1O; experiment: luciferase ATP determination assay; type: biochemical, Pseudomonas aeruginosa; conditions: 0-20 mM ADP, 10 mM sodium polyphosphate (Graham's salt), 10 mM MgCl2, sodium phosphate pH 7.5, 30 °C
[3] = substrate: Nc1ncnc2c1ncn2[C@@H]1O[C@H](COP(=O)(O)OP(=O)(O)OP(=O)(O)O)[C@@H](O)[C@H]1O; experiment: coupled G6PDH assay, NADH formation; type: biochemical, Saccharomyces cerevisiae; conditions: 200 mM glucose, 10 mM MgCl2, 50 mM sodium phosphate pH 7.5, 30 °C
From the text: coupled G6PDH assay, NADH formation on yeast hexokinase (HK)

Nc1ncnc2c1ncn2[C@@H]1O[C@H](COP(=O)(O)OP(=O)(O)O)[C@@H](O)[C@H]1O [ADP]
relative activity [1]: ADP lowered the reaction even at small concentrations.

B1: PPK2 (Pseudomonas aeruginosa PAO1) (protein)
chain: MDSYGDTSGRIGRDWLDRHDEELEQELLDDELNLDELFGPEQEDAPGELSRRRYFRELFRLQRELVKLQNWVVHTGHKVVILFEGRDAAGKGGVIKRITQRLNPRVCRVAALPAPNDREQTQWYFQRYVSHLPAGGEIVLFDRSWYNRAGVERVMGFCNDEQYEEFFRSVPEFEKMLARSGIQLLKYWFSISDAEQHLRFLSRIHDPLKQWKLSPMDLESRRRWEAYTKAKETMLERTHIPEAPWWVVQADDKKRARLNCIHHLLQQMPYREVPQPPVHLPERLRHADYVRHPTPGEIIVPEVY
notes: about 39 kDa; E. coli BL21 (DE3)
Km [2]: 23 ± 5.9 µM

B2: yeast hexokinase (HK) (Saccharomyces cerevisiae S288C) (protein)
chain: T1 sequence (P04807 2-486)
notes: commercial preparation containing predominantly the PII isoform (HXK2); may contain some PI
Km [3]: 1107 ± 74 µM | Vmax [3]: 33 µM/min
